Measured values as given in patent US20220031830A1.

How the values were obtained:
[1] = biological target: 11MUTB Env trimer (SOSIP.664) derived from wtBG505 (HIV-1 BG505); assay: SPR (Biacore T200), SOSIP captured on 8ANC195 IgG, Fab injected, equilibrium fit 1:1
[2] = biological target: RC1 Env trimer (BG505-derived SOSIP.664 soluble gp140) (HIV-1 BG505); assay: as above

“Fab of the common inferred germline (iGL) precursor of PGT121 and 10-1074” gave a Kd [1] of 50 µM and a Kd [2] of 50 µM.
